Assay results as given in US20250199010A1 (ALAMAR BIOSCIENCES, published 2025).
Read-outs that look alike come from different tables or passages of the source.

Legend:
[1] = target: 7D12-(E4K4)5-VSG-[-AA]9G8; assay: SPR, murine EGFR-Fc
[2] = target: 7D12-FAS-(AP)11-VGG-[-AA]9G8 (llama); assay: SPR, murine EGFR-Fc
[3] = target: 7D12-ITA-(E4K4)4-IGG-[-AA]9G8 (llama); assay: SPR, murine EGFR-Fc
7D12-(GGGS)4-9G8 [4] = target: 7D12-(GGGS)4-9G8 (llama); assay: SPR (Biacore), 25 °C
7D12-(GGGS)4-9G8 [5] = target: 7D12-(GGGS)4-9G8 (llama); assay: SPR (Biacore), 25 °C; remark: listed apart in the source
9G8-GS-7D12 = 9G8-GS-7D12 (llama); assay: SPR (Biacore), 25 °C

B1: Mouse EGFR-Fc (Fc fusion, UniProt Q01279 25-647, looked up)
chain: LEEKKVCQGTSNRLTQLGTFEDHFLSLQRMYNNCEVVLGNLEITYVQRNYDLSFLKTIQEVAGYVLIALNTVERIPLENLQIIRGNALYENTYALAILSNYGTNRTGLRELPMRNLQEILIGAVRFSNNPILCNMDTIQWRDIVQNVFMSNMSMDLQSHPSSCPKCDPSCPNGSCWGGGEENCQKLTKIICAQQCSHRCRGRSPSDCCHNQCAAGCTGPRESDCLVCQKFQDEATCKDTCPPLMLYNPTTYQMDVNPEGKYSFGATCVKKCPRNYVVTDHGSCVRACGPDYYEVEEDGIRKCKKCDGPCRKVCNGIGIGEFKDTLSINATNIKHFKYCTAISGDLHILPVAFKGDSFTRTPPLDPRELEILKTVKEITGFLLIQAWPDNWTDLHAFENLEIIRGRTKQHGQFSLAVVGLNITSLGLRSLKEISDGDVIISGNRNLCYANTINWKKLFGTPNQKTKIMNNRAEKDCKAVNHVCNPLCSSEGCWGPEPRDCVSCQNVSRGRECVEKCNILEGEPREFVENSECIQCHPECLPQAMNITCTGRGPDNCIQCAHYIDGPHCVKTCPAGIMGENNTLVWKYADANNVCHLCHANCTYGCAGPGLQGCEVWPSGPKIPS
notes: also called muEGFR; murine EGFR-Fc; not shown: Fc part, not described
Q: With B1 as the binder, how does the Kd [1] read?
A: 0.0026 µM

Q: What about the Kd [2] of the same binder?
A: 0.0006 µM

Q: And the Kd [3]?
A: 0.0007 µM

Q: And the Kd (7D12-(GGGS)4-9G8 [4])?
A: 0.16 µM

Q: What about the Kd (7D12-(GGGS)4-9G8 [5]) of the same binder?
A: 0.16 µM

Q: What about the Kd (9G8-GS-7D12) of the same binder?
A: 0.058 µM
